Consider 2 molecules from patent US20140120095A1 (Boehringer Ingelheim, published 2014).

Assay [1] has as its target T1, human DLL4 expressed on cells (CHO-hDLL4; HEK293-hDLL4) (human, UniProt Q9NR61 27-685).
T1 construct: full length human DLL4 overexpressed on CHO cells (FMAT, FACS) or HEK293 cells (reporter assay)
The assay is described as follows: FMAT competition on CHO-hDLL4 cells; unlabelled rhNotch1-Fc competes with Alexa-647 labelled hNotch1-Fc.

Assay [2] deals with T2, mouse DLL4 expressed on CHO cells (mouse, UniProt Q9JI71 27-686).
T2 construct: whole, on cells; also called mDLL4; CHO-mDLL4
The assay is described as follows: FMAT competition on CHO-mDLL4 cells; unlabelled rhNotch1-Fc competes with Alexa-647 labelled hNotch1-Fc.

For assay [3], the target named is T3, recombinant mouse DLL4 (mouse, UniProt Q9JI71 27-532).
T3 construct: extracellular domain; also called rmDLL4; mDLL4
In words: binding ELISA on coated recombinant mouse DLL4, OD 405 nm. How it is done: (§1) In order to determine cross-reactivity to mouse DII4 a binding ELISA is performed. […] Wells are blocked with a casein solution (1% in PBS). VHHs are applied as dilution series and binding is detected using a mouse anti-myc (Roche) and an anti-mouse-AP conjugate (Sigma, St Louis, Mo., USA) (FIG. 7 A-H). As reference, binding to human DII4 is measured.

The target in assay [4] is T4, mouse DLL4 overexpressed on cells (mouse, UniProt Q9JI71 27-686).
T4 construct: whole, on cells; also called CHO-mDLL4; CHO-mDII4
The assay is described as follows: FMAT, labelled hNotch1-Fc on CHO-mDLL4, periplasmic extract. The text has this: (§2) All calculations are based on the FL1_total signal which comprises the average of the fluorescence per well times the number of counts per well.
Target sequence in this assay (Q9JI71 27-686): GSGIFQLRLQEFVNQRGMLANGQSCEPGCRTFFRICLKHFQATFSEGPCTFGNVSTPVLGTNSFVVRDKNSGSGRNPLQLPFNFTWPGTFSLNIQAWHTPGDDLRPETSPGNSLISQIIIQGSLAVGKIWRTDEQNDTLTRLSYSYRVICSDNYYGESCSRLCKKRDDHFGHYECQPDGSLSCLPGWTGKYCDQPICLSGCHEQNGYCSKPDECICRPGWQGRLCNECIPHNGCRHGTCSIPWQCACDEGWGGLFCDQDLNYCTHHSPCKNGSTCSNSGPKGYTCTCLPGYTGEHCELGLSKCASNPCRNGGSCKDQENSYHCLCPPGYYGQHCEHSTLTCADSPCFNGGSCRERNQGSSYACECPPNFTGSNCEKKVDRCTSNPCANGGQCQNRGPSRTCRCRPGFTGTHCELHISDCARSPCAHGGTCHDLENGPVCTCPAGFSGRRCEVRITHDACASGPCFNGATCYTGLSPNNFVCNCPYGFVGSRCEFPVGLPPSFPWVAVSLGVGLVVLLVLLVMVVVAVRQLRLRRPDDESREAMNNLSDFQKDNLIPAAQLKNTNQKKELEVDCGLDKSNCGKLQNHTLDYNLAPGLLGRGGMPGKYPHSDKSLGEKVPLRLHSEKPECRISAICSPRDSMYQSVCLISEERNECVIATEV

Assay [5] deals with T5, human DLL4 overexpressed on cells (human, UniProt Q9NR61 27-685).
T5 construct: full length human DLL4 on CHO or HEK293 cells; also called CHO-hDLL4; CHO-hDII4
The assay is described as follows: competitive FMAT, hNotch1-Fc on CHO-hDLL4.

The target of assay [6] is T6, recombinant human DLL4 (human, UniProt Q9NR61 25-522).
T6 construct: also called rhDLL4; hDLL4
The assay is described as follows: Biacore off-rate, periplasmic extract.

The target of assay [7] is T5, human DLL4 overexpressed on cells. In words: FACS titration on HEK293-hDLL4 cells, MCF. As for the experimental part:
In order to determine the cynomologus cross-reactivity of the VHHs, a FACS binding experiment is performed. Cynomolgus DII4 expressing HEK293 cells (transient or stable transfection) are used for a titration binding experiment of the VHHs. After a 30 minutes incubation on ice, all samples are washed and detection is performed by applying anti-c-myc˜Alexa647 (Santa Cruz Biotechnology, Santa Cruz, Calif., USA). Human and mouse DII4 overexpressing HEK293 cells are taken as reference. The mean MCF value is determined on the FACS Array and used for calculation of the EC₅₀ value (see FIG. 9 A-E).

For assay [8], the target named is T7, cynomolgus DLL4 overexpressed on cells (cynomolgus, UniProt Q9NR61 27-685 (human entry)).
T7 construct: also called cyno DII4; cDLL4
T7 chain: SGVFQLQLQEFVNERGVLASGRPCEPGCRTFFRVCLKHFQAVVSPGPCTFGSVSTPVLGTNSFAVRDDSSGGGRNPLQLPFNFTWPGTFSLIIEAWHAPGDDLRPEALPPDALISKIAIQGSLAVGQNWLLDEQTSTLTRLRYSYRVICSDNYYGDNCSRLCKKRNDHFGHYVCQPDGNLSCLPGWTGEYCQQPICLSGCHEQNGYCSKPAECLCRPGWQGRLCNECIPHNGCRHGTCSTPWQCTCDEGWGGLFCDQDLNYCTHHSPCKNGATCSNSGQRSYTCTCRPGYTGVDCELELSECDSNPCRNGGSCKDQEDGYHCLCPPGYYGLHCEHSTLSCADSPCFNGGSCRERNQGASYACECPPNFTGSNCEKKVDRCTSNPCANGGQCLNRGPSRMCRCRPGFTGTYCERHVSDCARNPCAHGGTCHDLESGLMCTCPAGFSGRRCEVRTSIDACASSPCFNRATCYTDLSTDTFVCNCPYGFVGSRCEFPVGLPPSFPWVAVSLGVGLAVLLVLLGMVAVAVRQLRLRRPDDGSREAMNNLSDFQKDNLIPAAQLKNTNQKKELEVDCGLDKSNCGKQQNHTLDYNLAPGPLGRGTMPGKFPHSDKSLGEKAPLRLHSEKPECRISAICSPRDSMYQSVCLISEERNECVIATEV
The assay is described as follows: FACS titration on HEK293-cDLL4 cells, MCF. The method, boiled down: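 HEK293 cells overexpressing DLL4 (transient or stable) were incubated with VHH titrations for 30 min on ice. After washing, binding was detected with anti-c-myc-Alexa647 by flow cytometry, and the mean MCF was used to calculate EC50.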

Assay [9] addresses T8, human DLL1 (human, UniProt O00548 18-545, limits assumed).
T8 construct: also called hDLL1
T8 sequence (looked up): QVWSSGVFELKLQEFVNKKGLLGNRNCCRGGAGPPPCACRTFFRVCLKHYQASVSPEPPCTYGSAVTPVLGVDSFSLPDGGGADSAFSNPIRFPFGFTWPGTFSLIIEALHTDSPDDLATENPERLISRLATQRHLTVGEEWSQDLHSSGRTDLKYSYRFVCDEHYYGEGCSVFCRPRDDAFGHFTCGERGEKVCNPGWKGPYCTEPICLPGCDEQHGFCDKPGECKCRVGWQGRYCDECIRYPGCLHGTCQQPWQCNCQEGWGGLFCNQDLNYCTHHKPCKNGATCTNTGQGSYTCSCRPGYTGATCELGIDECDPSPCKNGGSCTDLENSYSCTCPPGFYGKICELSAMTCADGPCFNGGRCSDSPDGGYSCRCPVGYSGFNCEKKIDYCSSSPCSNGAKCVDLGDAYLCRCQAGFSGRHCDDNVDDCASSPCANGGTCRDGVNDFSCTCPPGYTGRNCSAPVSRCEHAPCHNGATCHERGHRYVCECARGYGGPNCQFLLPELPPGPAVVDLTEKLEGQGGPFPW
The assay is described as follows: binding ELISA on coated recombinant human DLL1, OD 405 nm. The method, boiled down:
(§3)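 Plates coated overnight at 4° C with 1 μg/mL ligand, blocked with 1% casein in PBS. VHH dilution series applied; bound VHH detected via mouse anti-myc then anti-mouse-AP conjugate.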

The target of assay [10] is T5, human DLL4 overexpressed on cells. The assay is described as follows: cell-based or functional assay.
In assay [11] the target is T9, human Jagged-1 (human, UniProt P78504 34-1067, limits assumed).
T9 construct: also called hJagged-1; hJAG1
In words: binding ELISA on coated recombinant human Jagged-1, OD 405 nm. An outline of the steps: as §3

In assay [12] the target is T5, human DLL4 overexpressed on cells. The assay is described as follows: FMAT, labelled hNotch1-Fc on CHO-hDLL4, periplasmic extract.
From the text: as §2

Assay [13] concerns the target T6, recombinant human DLL4. The assay is described as follows: competition ELISA, biot-hDLL4 to coated hNotch1-Fc. The text has this:
Residual binding of biotinylated human DII4 is detected using horseradish peroxidase (HRP) conjugated extravidin (Sigma, St. Louis, Mo., USA) (FIG. 3 A-C). Human DII4 is biotinylated as described above.

Assay [14] has as its target T6, recombinant human DLL4. In words: cell-based or functional assay.
The target in assay [15] is T6, recombinant human DLL4. In words: binding ELISA, coated rhDLL4. How it is done:
as §1

Assay [16] concerns the target T6, recombinant human DLL4. The assay is described as follows: SPR Biacore T100, hDLL4 on chip; heterogeneous binding curve, no 1:1 fit. As for the experimental part: Kinetic analysis to determine the affinity of the DII4-VHH interaction is performed by Surface Plasmon Resonance (SPR) on a Biacore T100 instrument. […] Purified VHHs or Fab fragment are injected for 2 minutes at different concentrations (between 10 and 300 nM) and allowed to dissociate for 20 min at a flow rate of 45 μl/min. Between sample injections, the surfaces are regenerated with 10 mM glycine pH1.5 and 100 mM HCl. HBS-N (Hepes buffer pH7.4) is used as running buffer. If possible, data are evaluated by fitting a 1:1 interaction model (Langmuir binding) onto the binding curves. The affinity constant KD is calculated from resulting association and dissociation rate constants (kₐ) and […].

Assay [17] concerns the target T4, mouse DLL4 overexpressed on cells. The assay is described as follows: FMAT competition on CHO-mDLL4 cells; blocked ligand Alexa-647 labelled hNotch1-Fc.

T3 sequence (Q9JI71 27-532): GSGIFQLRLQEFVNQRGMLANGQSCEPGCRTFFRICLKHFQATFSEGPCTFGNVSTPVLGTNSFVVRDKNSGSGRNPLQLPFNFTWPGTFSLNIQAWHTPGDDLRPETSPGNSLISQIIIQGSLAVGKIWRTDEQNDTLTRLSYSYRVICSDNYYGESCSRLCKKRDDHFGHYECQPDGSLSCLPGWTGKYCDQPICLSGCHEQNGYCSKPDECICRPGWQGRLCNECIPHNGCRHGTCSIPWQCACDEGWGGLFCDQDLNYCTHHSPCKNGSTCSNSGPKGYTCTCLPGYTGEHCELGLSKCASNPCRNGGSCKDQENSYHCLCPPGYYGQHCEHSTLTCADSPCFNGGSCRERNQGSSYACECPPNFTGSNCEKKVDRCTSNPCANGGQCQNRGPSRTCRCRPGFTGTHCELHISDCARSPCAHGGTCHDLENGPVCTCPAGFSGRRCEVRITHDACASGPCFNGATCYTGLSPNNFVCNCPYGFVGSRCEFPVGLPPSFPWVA

B1: human Notch1/Fc chimera (R&D Systems) (Fc fusion, UniProt P46531 19-526, looked up, not shown: a dimerising Fc or GST)
chain: ARGPRCSQPGETCLNGGKCEAANGTEACVCGGAFVGPRCQDPNPCLSTPCKNAGTCHVVDRRGVADYACSCALGFSGPLCLTPLDNACLTNPCRNGGTCDLLTLTEYKCRCPPGWSGKSCQQADPCASNPCANGGQCLPFEASYICHCPPSFHGPTCRQDVNECGQKPGLCRHGGTCHNEVGSYRCVCRATHTGPNCERPYVPCSPSPCQNGGTCRPTGDVTHECACLPGFTGQNCEENIDDCPGNNCKNGGACVDGVNTYNCRCPPEWTGQYCTEDVDECQLMPNACQNGGTCHNTHGGYNCVCVNGWTGEDCSENIDDCASAACFHGATCHDRVASFYCECPHGRTGLLCHLNDACISNPCNEGSNCDTNPVNGKAICTCPSGYTGPACSQDVDECSLGANPCEHAGKCINTLGSFECQCLQGYTGPRCEIDVNECVSNPCQNDATCLDQIGEFQCICMPGYEGVHCEVNTDECASSPCLHNGRCLDKINEFQCECPTGFTGHLCQ
modifications: Alexa-647 labelled in the FMAT assay
notes: also called hNotch1-Fc; rhNotch1/Fc
As to B1, the “IC50 (read off the curve)” value in assay [1] is around 4 nM; in assay [2], around 2 nM.

B2: DLLBII104G01 (VHH)
VHH: EVQLVESGGGLVQAGGSLRLSCAASGFTFDDYAIGWFRQAPGKEREGVSCISSSDGSTYYADSVKGRFTISSDNAKNTVYLQMNSLKPEDTAVYYCATAWCDSSWYRSFVGYWGQGTQVTVSS
notes: also called 104G1
For the molecule B2, the binding result in [3], in [9] and in assay [11] was “no binding (tested: 5e-7 M)” in each case. Besides, the “% inh” value in assay [4] was determined as 86%; in assay [12], 94%. In addition, the IC50 in [5] turned out to be 2.5 nM; in assay [13] it was 1.1 nM. The values for the koff in [6] and in [16] were 0.0012 s⁻¹ and 0.0006 to 0.003 s⁻¹, respectively. In addition, the “EC50 (read off the curve)” value in [7] was around 4 nM; in [8], around 5 nM. In assay [10], the “IC50, DLL4/Notch1 reporter assay” value was 964 nM. Besides, the “IC50 (nM) (experiment 1), DLL4 proliferation assay (HUVEC)” value in assay [14] is 103 nM. In addition, in assay [14], the “IC50 (nM) (experiment 2), DLL4 proliferation assay (HUVEC)” value stood at 32 nM. For the same molecule, the EC50 in assay [15] was determined as 8.4 nM. In addition, in assay [16], the Kd was 4 to 24 nM. In [16], the kon is 120000 to 150000 M⁻¹ s⁻¹. In addition, the “IC50 (read off the curve)” value in assay [17] is around 60 nM.
